These substances were tested against HLA-A*02:01 (Homo sapiens, UniProt P04439, D140Y/D185E/D98H/E176V/E277Q/G131W/G231S/I119V/I121R/I166T/I218V/L300P/L318F/N151K/N90K/P208A/P217A/Q86G/Q94H/R138H/R169H/T345S) (assay: MHC binding assay (UV-ligand exchange, ELISA of exchange yield)). Details: binding to HLA-A*02:01, UV-ligand exchange.
Summary of the method: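 Peptide–MHC complexes made by UV-ligand exchange, where a UV-cleavable peptide is replaced by the test peptide. Exchange yield measured by ELISA: complexes diluted 100-fold on streptavidin-coated plates, stabilized complexes detected with HRP anti-β2m, TMB read at 450 nm.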

Which “Peptide exchange (MHC class I binding score, peptide exchange yield)” value (“Peptide exchange” below) does the source give for “167 (KVLEVTEEFGV; listed as Homo sapiens) [compound 167]” here?
Its value is ““+++” (≥50 = +++)”.

How did the “Peptide exchange” value turn out when “168 (KILDADIQL; listed as Homo sapiens) [compound 168]” was run?
Its value is ““++++” (≥75% = ++++)”.

With “169 (NLPEYLPFV; listed as Homo sapiens) [compound 169]” as the substance, how does the “Peptide exchange” value read?
The value was ““+++” (≥50 = +++)”.

Which “Peptide exchange” value does the source give for “170 (RLQETLSAA; listed as Homo sapiens) [compound 170]” here?
Its value is ““+++” (≥50 = +++)”.

How did the “Peptide exchange” value turn out when “171 (LLLPLQILL; listed as Homo sapiens) [compound 171]” was run?
The value was ““+++” (≥50 = +++)”.

Which “Peptide exchange” value does the source give for “172 (VLYSYTIITV; listed as Homo sapiens) [compound 172]” here?
The value was ““++” (≥20% = ++)”.

With “173 (LLDSASAGLYL; listed as Homo sapiens) [compound 173]” as the substance, how does the “Peptide exchange” value read?
Its value is ““+++” (≥50 = +++)”.

“174 (ALAQYLITA; listed as Homo sapiens) [compound 174]” was tested. Which “Peptide exchange” value did it give?
The value was ““+++” (≥50 = +++)”.

“175 (YLFENISQL; listed as Homo sapiens) [compound 175]” was tested. Which “Peptide exchange” value did it give?
The value was ““+++” (≥50 = +++)”.

Which “Peptide exchange” value does the source give for “176 (YLMEGSYNKVFL; listed as Homo sapiens) [compound 176]” here?
Its value is ““++” (≥20% = ++)”.

How did the “Peptide exchange” value turn out when “177 (YLLPEEYTSTL; listed as Homo sapiens) [compound 177]” was run?
The value was ““++++” (≥75% = ++++)”.

For “178 (ALTEIAFVV; listed as Homo sapiens) [compound 178]”, which “Peptide exchange” value is on record?
Its value is ““++++” (≥75% = ++++)”.

Which “Peptide exchange” value does the source give for “179 (KVLNELYTV; listed as Homo sapiens) [compound 179]” here?
The value was ““+++” (≥50 = +++)”.

“180 (FQIDPHSGLVTV; listed as Homo sapiens) [compound 180]” was tested. Which “Peptide exchange” value did it give?
Its value is ““++” (≥20% = ++)”.

Which “Peptide exchange” value does the source give for “181 (LLWAGTAFQV; listed as Homo sapiens) [compound 181]” here?
Its value is ““+++” (≥50 = +++)”.

With “182 (MLLEAPGIFL; listed as Homo sapiens) [compound 182]” as the substance, how does the “Peptide exchange” value read?
The value was ““+++” (≥50 = +++)”.

With “183 (FGLDLVTEL; listed as Homo sapiens) [compound 183]” as the substance, how does the “Peptide exchange” value read?
The value was ““+++” (≥50 = +++)”.

How did the “Peptide exchange” value turn out when “184 (YLMDINGKMWL; listed as Homo sapiens) [compound 184]” was run?
Its value is ““+++” (≥50 = +++)”.

How did the “Peptide exchange” value turn out when “185 (FLIDDKGYTL; listed as Homo sapiens) [compound 185]” was run?
The value was ““++” (≥20% = ++)”.

How did the “Peptide exchange” value turn out when “186 (TLFFQQNAL; listed as Homo sapiens) [compound 186]” was run?
The value was ““++” (≥20% = ++)”.

With “187 (RQISIRGIVGV; listed as Homo sapiens) [compound 187]” as the substance, how does the “Peptide exchange” value read?
The value was ““+++” (≥50 = +++)”.

With “188 (GLFPVTPEAV; listed as Homo sapiens) [compound 188]” as the substance, how does the “Peptide exchange” value read?
Its value is ““+++” (≥50 = +++)”.

“189 (ALQRKLPYV; listed as Homo sapiens) [compound 189]” was tested. Which “Peptide exchange” value did it give?
Its value is ““+++” (≥50 = +++)”.

“190 (FLSSLTETI; listed as Homo sapiens) [compound 190]” was tested. Which “Peptide exchange” value did it give?
Its value is ““+++” (≥50 = +++)”.

For “191 (LLQEGQALEYV; listed as Homo sapiens) [compound 191]”, which “Peptide exchange” value is on record?
The value was ““++” (≥20% = ++)”.

“192 (KMLDGASFTL; listed as Homo sapiens) [compound 192]” was tested. Which “Peptide exchange” value did it give?
The value was ““+++” (≥50 = +++)”.

Which “Peptide exchange” value does the source give for “193 (QLLDADGFLNV; listed as Homo sapiens) [compound 193]” here?
The value was ““+++” (≥50 = +++)”.

With “194 (ALPLFVITV; listed as Homo sapiens) [compound 194]” as the substance, how does the “Peptide exchange” value read?
Its value is ““+++” (≥50 = +++)”.

With “195 (GLFADLLPRL; listed as Homo sapiens) [compound 195]” as the substance, how does the “Peptide exchange” value read?
Its value is ““+++” (≥50 = +++)”.

Which “Peptide exchange” value does the source give for “196 (YLYSVEIKL; listed as Homo sapiens) [compound 196]” here?
The value was ““++++” (≥75% = ++++)”.

For “197 (ALGPEGGRV; listed as Homo sapiens) [compound 197]”, which “Peptide exchange” value is on record?
The value was ““++” (≥20% = ++)”.

For “198 (KTINKVPTV; listed as Homo sapiens) [compound 198]”, which “Peptide exchange” value is on record?
The value was ““+++” (≥50 = +++)”.

With “199 (ALQDVPLSSV; listed as Homo sapiens) [compound 199]” as the substance, how does the “Peptide exchange” value read?
The value was ““+++” (≥50 = +++)”.

For “200 (LLFGSVQEV; listed as Homo sapiens) [compound 200]”, which “Peptide exchange” value is on record?
The value was ““+++” (≥50 = +++)”.

How did the “Peptide exchange” value turn out when “201 (RLVDYLEGI; listed as Homo sapiens) [compound 201]” was run?
The value was ““+++” (≥50 = +++)”.

How did the “Peptide exchange” value turn out when “202 (ALLDQQGSRWTL; listed as Homo sapiens) [compound 202]” was run?
The value was ““+++” (≥50 = +++)”.

For “204 (KIAENVEEV; listed as Homo sapiens) [compound 204]”, which “Peptide exchange” value is on record?
Its value is ““++” (≥20% = ++)”.

For “205 (SLYPGTETMGL; listed as Homo sapiens) [compound 205]”, which “Peptide exchange” value is on record?
Its value is ““+++” (≥50 = +++)”.

For “206 (VLQEGKLQKLAQL; listed as Homo sapiens) [compound 206]”, which “Peptide exchange” value is on record?
Its value is ““+++” (≥50 = +++)”.

For “207 (GLTSTNAEV; listed as Homo sapiens) [compound 207]”, which “Peptide exchange” value is on record?
Its value is ““++” (≥20% = ++)”.

How did the “Peptide exchange” value turn out when “208 (KISPVTFSV; listed as Homo sapiens) [compound 208]” was run?
Its value is ““+++” (≥50 = +++)”.

“209 (KLIESKHEV; listed as Homo sapiens) [compound 209]” was tested. Which “Peptide exchange” value did it give?
Its value is ““++” (≥20% = ++)”.

“210 (LLLNAVLTV; listed as Homo sapiens) [compound 210]” was tested. Which “Peptide exchange” value did it give?
Its value is ““++” (≥20% = ++)”.

For “211 (LLWPGAALL; listed as Homo sapiens) [compound 211]”, which “Peptide exchange” value is on record?
Its value is ““++” (≥20% = ++)”.

With “212 (ALWDQDNLSV; listed as Homo sapiens) [compound 212]” as the substance, how does the “Peptide exchange” value read?
The value was ““++” (≥20% = ++)”.

For “214 (FLLDLDPLLL; listed as Homo sapiens) [compound 214]”, which “Peptide exchange” value is on record?
The value was ““+++” (≥50 = +++)”.

Which “Peptide exchange” value does the source give for “215 (QLINHLHAV; listed as Homo sapiens) [compound 215]” here?
Its value is ““+++” (≥50 = +++)”.

“216 (NLWEDPYYL; listed as Homo sapiens) [compound 216]” was tested. Which “Peptide exchange” value did it give?
Its value is ““+++” (≥50 = +++)”.

For “217 (ALIHPVSTV; listed as Homo sapiens) [compound 217]”, which “Peptide exchange” value is on record?
Its value is ““++” (≥20% = ++)”.

With “218 (SALEELVNV; listed as Homo sapiens) [compound 218]” as the substance, how does the “Peptide exchange” value read?
Its value is ““++” (≥20% = ++)”.

“219 (KLSDIGITV; listed as Homo sapiens) [compound 219]” was tested. Which “Peptide exchange” value did it give?
The value was ““+++” (≥50 = +++)”.

With “220 (LLQKFVPEI; listed as Homo sapiens) [compound 220]” as the substance, how does the “Peptide exchange” value read?
The value was ““++” (≥20% = ++)”.

How did the “Peptide exchange” value turn out when “221 (ALYEEGLLL; listed as Homo sapiens) [compound 221]” was run?
The value was ““++” (≥20% = ++)”.

How did the “Peptide exchange” value turn out when “222 (NLIENVQRL; listed as Homo sapiens) [compound 222]” was run?
The value was ““++” (≥20% = ++)”.

“223 (ALLENIALYL; listed as Homo sapiens) [compound 223]” was tested. Which “Peptide exchange” value did it give?
The value was ““+++” (≥50 = +++)”.

With “224 (TLIDAQWVL; listed as Homo sapiens) [compound 224]” as the substance, how does the “Peptide exchange” value read?
Its value is ““+++” (≥50 = +++)”.

For “225 (SLLKVLPAL; listed as Homo sapiens) [compound 225]”, which “Peptide exchange” value is on record?
Its value is ““+++” (≥50 = +++)”.

How did the “Peptide exchange” value turn out when “226 (MLYVVPIYL; listed as Homo sapiens) [compound 226]” was run?
Its value is ““++” (≥20% = ++)”.

With “227 (ALMNTLLYL; listed as Homo sapiens) [compound 227]” as the substance, how does the “Peptide exchange” value read?
Its value is ““++” (≥20% = ++)”.

Which “Peptide exchange” value does the source give for “228 (AMQEYIAVV; listed as Homo sapiens) [compound 228]” here?
The value was ““++” (≥20% = ++)”.

For “229 (RLPGPLGTV; listed as Homo sapiens) [compound 229]”, which “Peptide exchange” value is on record?
Its value is ““++” (≥20% = ++)”.
